The target of this assay is T1, PCPE1 (Homo sapiens (Human), UniProt Q15113).
T1 chain: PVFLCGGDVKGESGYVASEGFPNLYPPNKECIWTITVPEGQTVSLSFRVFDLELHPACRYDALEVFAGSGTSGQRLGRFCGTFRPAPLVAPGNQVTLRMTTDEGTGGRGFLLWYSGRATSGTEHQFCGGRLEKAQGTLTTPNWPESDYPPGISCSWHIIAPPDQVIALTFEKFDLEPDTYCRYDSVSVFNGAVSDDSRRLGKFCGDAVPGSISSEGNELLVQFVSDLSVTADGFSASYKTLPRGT
Nature of the assay: Ki app, fluorogenic peptide.

B1: BMP1 (protein)
chain: AATSRPERVWPDGVIPFVIGGNFTGSQRAVFRQAMRHWEKHTCVTFLERTDEDSYIVFTYRPCGCCSYVGRRGGGPQAISIGKNCDKFGIVVHELGHVVGFWHEHTRPDRDRHVSIVRENIQPGQEYNFLKMEPQEVESLGETYDFDSIMHYARNTFSRGIFLDTIVPKYEVNGVKPPIGQRTRLSKGDIAQARKLYKCPACGETLQDSTGNFSSPEYPNGYSAHMHCVWRISVTPGEKIILNFTSLDLYRSRLCWYDYVEVRDGFWRKAPLRGRFCGSKLPEPIVSTDSRLWVEFRSSSNWVGKGFFAVYEAICGGDVKKDYGHIQSPNYPDDYRPSKVCIWRIQVSEGFHVGLTFQSFEIERHDSCAYDYLEVRDGHSESSTLIGRYCGYEKPDDIKSTSSRLWLKFVSDGSINKAGFAVNFFK
B1: the “apparent Ki” value is greater than 150 nM.

Values taken from PMC10696041 (2023).
